# Data from PMC12554172, “Systematic analysis of the RGS2 degron reveals characteristics of substrate recognition by the F-box protein FBXO44” (The Journal of Biological Chemistry, 2025).
# Target: T1, FBXO44^FBA (Homo sapiens, UniProt Q9H4M3)
# T1 construct: we expressed and purified only this domain for all in vitro studies; 6xHis (N, cleaved yes); MBP (N, cleaved yes); made in house; host or cells: Escherichia coli Rosetta BL21 (λDE3)
# T1 sequence (Q9H4M3 71-252 limits assumed): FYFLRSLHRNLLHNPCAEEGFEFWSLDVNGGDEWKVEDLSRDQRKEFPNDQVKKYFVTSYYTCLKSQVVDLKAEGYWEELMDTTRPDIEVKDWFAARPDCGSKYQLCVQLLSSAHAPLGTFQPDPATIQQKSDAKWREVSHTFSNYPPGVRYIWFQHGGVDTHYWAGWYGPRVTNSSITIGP
# Test: Peptide microarray (PEPperPRINT), FLAG-FBXO44^FBA binding
# Details: 2 μg/ml FBXO44^FBA overnight at 4 °C; for Mean % difference from parent peptide (FLAG immunoreactivity): Table S1, RGS2^5–16 single-residue substitution, PBS 0.005% Tween pH 7.4, anti-FLAG DyLight800 fluorescence, three independent experiments with three technical replicates each; for FBXO44^FBA binding in peptide microarray (in words): versus parent RGS2^5–16 peptide, fluorescence
# From the text: To do so, we utilized a custom peptide microarray (PEPperPRINT GmbH). The design of this array was twofold: (1) substitution at each position with every other natural eukaryotic amino acid; (2) truncation of the peptide from the C terminus. We assessed the binding of FLAG-FBXO44^FBA to the array utilizing fluorescence immunoreactivity corresponding to the amount of FLAG-FBXO44^FBA bound. […] Substitutions at Asp^12 were not only tolerated but also seemed to improve binding in every case (Fig. 3B). This, combined with the fact that substituting any residue in His^11–Met^16 with Arg, and in most cases with Lys, improved FBXO44^FBA binding, indicating the presence of negative charges at the binding interface.
# Figure 2 Systematic mutation of the RGS2 degron alters FBXO44^FBA binding. A custom microarray (PEPperPRINT) was designed where each position of the RGS2^5–16 peptide was substituted for each natural amino acid. We also included truncated peptides on the array. This was incubated with purified FBXO44^FBA and probed with α-FLAG. A, a representative scan of a peptide microarray (top) and a truncated peptide (bottom). B, heatmap of mean fluorescence of quantified microarray scans. The scale represents the mean fluorescence in percentage points across all replicates, normalized to the signal obtained with the original residue at each position. C, heatmap of standard deviation of quantified microarray scans. The scale represents the standard deviation in percentage points across all replicates. […] Residues are color-coded based on properties: blue, positive charge; red, negative charge; orange, uncharged polar; green, hydrophobic; yellow, Cys (C); bright green, Pro (P); and black, Gly (G). […] Results of three independent experiments with three technical replicates each. For a statistical significance summary, see Table S1. FBXO44, F-box only protein 44; RGS2, regulator of G protein signaling 2.
# Figure 3 Effects of RGS2^5–16 peptide residue changes on FBXO44^FBA binding. Data are presented as % FLAG immunoreactivity, as compared with the parent peptide residue. […] The original residue is marked in each graph with a vertical dotted line. Boxes extend from the 25th to 75th percentile with a line marking the median. Whiskers extend to the minimum and maximum. Results of three independent experiments with three technical replicates each. Data were analyzed by two-way ANOVA, with Tukey's post hoc test for pairwise comparison (simple effect within columns). Statistical significance is summarized in Table S1 and color-coded according to the legend. FBXO44, F-box only protein 44; RGS2, regulator of G protein signaling 2.
# The microarray slide was seated into the incubation tray according to PEPperPRINT's instructions. The array well was then incubated in washing buffer (PBS) with 0.005% Tween (Sigma; P1379, pH 7.4) at room temperature for 15 min on an orbital shaker. Washing buffer was aspirated, and the array was then incubated with Rockland blocking buffer at room temperature for 30 min on an orbital shaker. Blocking buffer was then aspirated, and the array was incubated in staining buffer (washing buffer with 10% Rockland blocking buffer) at room temperature for 15 min on an orbital shaker. Staining buffer was aspirated, and purified FBXO44 FBA domain diluted to 2 μg/ml in staining buffer was added. The array was then placed on an orbital shaker overnight at 4 °C. The FBA domain solution was removed, and an array was washed three times with washing buffer. After the third array was incubated in staining buffer for 15 min at 4 °C on an orbital shaker. The array was then incubated with antibody dilution (anti-FLAG DyLight800 and anti-HA DyLight680, both diluted 1:2000 in staining buffer) for 45 min at 4° C on an orbital shaker. The array was then washed three times with washing buffer. […]
Substance,Mean % difference from parent peptide (FLAG immunoreactivity) [%],FBXO44^FBA binding in peptide microarray (in words)
"D12V: array RGS2^5–16 peptide, D12 substituted by V (MFLAVQHVCRPM; UniProt P41220 5-16, looked up, variant D12V)",40.66,
"D12W: array RGS2^5–16 peptide, D12 substituted by W (MFLAVQHWCRPM; UniProt P41220 5-16, looked up, variant D12W)",48.95,
"D12Y: array RGS2^5–16 peptide, D12 substituted by Y (MFLAVQHYCRPM; UniProt P41220 5-16, looked up, variant D12Y)",31.8,
"H11R: array RGS2^5–16 peptide, H11 substituted by R (MFLAVQRDCRPM)",41.19,"modest effects, with only one or two substitutions for each reaching significance"
"M16A: array RGS2^5–16 peptide, M16 substituted by A (MFLAVQHDCRPA; UniProt P41220 5-16, looked up, variant M16A)",-33.89,
"M16C: array RGS2^5–16 peptide, M16 substituted by C",30.03,
"M16D: array RGS2^5–16 peptide, M16 substituted by D (MFLAVQHDCRPD; UniProt P41220 5-16, looked up, variant M16D)",31.28,
"M16G: array RGS2^5–16 peptide, M16 substituted by G (MFLAVQHDCRPG; UniProt P41220 5-16, looked up, variant M16G)",-27.86,
"M16K: array RGS2^5–16 peptide, M16 substituted by K (MFLAVQHDCRPK; UniProt P41220 5-16, looked up, variant M16K)",38.94,
"M16R: array RGS2^5–16 peptide, M16 substituted by R (MFLAVQHDCRPR; UniProt P41220 5-16, looked up, variant M16R)",101.4,
"P15A: array RGS2^5–16 peptide, P15 substituted by A",-27.06,
"P15C: array RGS2^5–16 peptide, P15 substituted by C",26.71,
"P15D: array RGS2^5–16 peptide, P15 substituted by D (MFLAVQHDCRDM; UniProt P41220 5-16, looked up, variant P15D)",31.74,
"P15K: array RGS2^5–16 peptide, P15 substituted by K (MFLAVQHDCRKM; UniProt P41220 5-16, looked up, variant P15K)",52.32,
"R14A: array RGS2^5–16 peptide, R14 substituted by A (MFLAVQHDCAPM)",-27.71,"modest effects, with only one or two substitutions for each reaching significance"
"R14W: array RGS2^5–16 peptide, R14 substituted by W (MFLAVQHDCWPM)",32.54,"modest effects, with only one or two substitutions for each reaching significance"
